{"source": "paper doi:10.1101/2021.08.11.455960", "key": {"[1]": {"molecular_target": "human angiotensin-converting enzyme 2 ectodomain (human) (UniProt Q9BYF1)", "sequence (Q9BYF1 19-615)": "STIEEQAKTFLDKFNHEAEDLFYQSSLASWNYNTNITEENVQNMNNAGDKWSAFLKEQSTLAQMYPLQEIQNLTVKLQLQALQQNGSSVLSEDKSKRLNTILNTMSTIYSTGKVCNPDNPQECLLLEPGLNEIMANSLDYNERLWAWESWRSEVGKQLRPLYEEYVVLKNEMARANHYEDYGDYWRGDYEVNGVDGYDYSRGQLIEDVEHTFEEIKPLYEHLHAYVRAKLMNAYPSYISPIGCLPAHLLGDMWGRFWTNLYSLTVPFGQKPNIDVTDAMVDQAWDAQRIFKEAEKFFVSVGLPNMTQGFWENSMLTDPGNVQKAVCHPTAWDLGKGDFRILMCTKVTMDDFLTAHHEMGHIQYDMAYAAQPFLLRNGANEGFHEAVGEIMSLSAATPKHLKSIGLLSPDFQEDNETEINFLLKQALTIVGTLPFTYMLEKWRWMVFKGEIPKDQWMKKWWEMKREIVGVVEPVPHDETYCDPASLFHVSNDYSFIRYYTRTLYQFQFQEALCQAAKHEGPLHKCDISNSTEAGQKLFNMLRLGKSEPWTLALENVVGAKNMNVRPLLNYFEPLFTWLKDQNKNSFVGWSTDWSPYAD", "assay": "SPR"}, "[2]": {"molecular_target": "Rhinolophus affinis angiotensin-converting enzyme 2 ectodomain (Rhinolophus affinis)", "assay": "SPR"}}}
{"substance": "RaTG13 spike receptor binding domain (domain or fragment)", "values": [{"measurement": "Kd", "setting": "[1]", "value": 21, "unit": "nM"}, {"measurement": "Kd", "setting": "[2]", "value": 12, "unit": "nM"}]}
